Laboratory results as given in patent US20200023080A1, “COMPOSITIONS AND METHOD FOR THE TREATMENT AND DETECTION OF COLON CANCER” (priority 2015, published 2020).
Positions of bridges follow the written chain, without caps; N, C: chain ends. Non-standard residues stand in square brackets, D forms with d. No end group written: not given here. Cy5.5 = cyanine dye Cy5.5, conjugated via NHS ester; Cy3 = cyanine dye Cy3, conjugated via NHS ester

T1: cell membranes isolated from rat intestinal tissues (Rattus norvegicus, UniProt P23897)
T1 construct: cell membranes isolated from T84 cells and from rat intestinal tissues; from tissue; host or cells: rat intestinal tissue membranes
T1 sequence (P23897 23-1072): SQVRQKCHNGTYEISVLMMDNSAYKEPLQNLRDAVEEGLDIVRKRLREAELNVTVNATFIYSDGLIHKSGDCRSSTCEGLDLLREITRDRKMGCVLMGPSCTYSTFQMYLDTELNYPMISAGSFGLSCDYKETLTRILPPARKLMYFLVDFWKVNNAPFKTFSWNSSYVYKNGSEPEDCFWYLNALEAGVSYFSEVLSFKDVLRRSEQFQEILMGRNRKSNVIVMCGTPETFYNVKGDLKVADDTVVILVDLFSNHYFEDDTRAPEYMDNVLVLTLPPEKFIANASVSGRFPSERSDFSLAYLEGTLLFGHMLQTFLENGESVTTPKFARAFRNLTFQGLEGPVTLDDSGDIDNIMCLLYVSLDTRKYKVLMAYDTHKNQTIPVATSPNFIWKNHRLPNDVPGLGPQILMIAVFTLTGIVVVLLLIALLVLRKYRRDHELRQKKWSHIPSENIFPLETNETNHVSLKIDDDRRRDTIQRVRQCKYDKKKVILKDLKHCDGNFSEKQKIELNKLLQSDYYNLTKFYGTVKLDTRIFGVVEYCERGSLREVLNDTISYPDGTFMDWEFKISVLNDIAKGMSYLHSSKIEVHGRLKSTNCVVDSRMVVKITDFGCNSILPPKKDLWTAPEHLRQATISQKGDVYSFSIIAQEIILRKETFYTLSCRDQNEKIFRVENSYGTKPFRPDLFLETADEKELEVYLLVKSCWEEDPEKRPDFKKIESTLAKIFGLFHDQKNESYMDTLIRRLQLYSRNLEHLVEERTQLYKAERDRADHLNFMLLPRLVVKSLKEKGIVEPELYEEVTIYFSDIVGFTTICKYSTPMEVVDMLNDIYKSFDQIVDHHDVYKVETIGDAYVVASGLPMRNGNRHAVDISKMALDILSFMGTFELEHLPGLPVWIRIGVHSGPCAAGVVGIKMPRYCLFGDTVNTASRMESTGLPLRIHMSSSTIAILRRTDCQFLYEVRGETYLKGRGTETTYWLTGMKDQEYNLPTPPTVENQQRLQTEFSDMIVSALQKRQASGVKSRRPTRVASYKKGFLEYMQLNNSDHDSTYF

T2: GC-C receptor in rat intestinal tissues (rat, UniProt P23897 23-1072)
T2 construct: whole, on cells; the protein target is inferred from the preceding sentence on GC-C receptors; also called cell membranes from rat intestinal tissues; rat intestinal fragments
T2 sequence (looked up): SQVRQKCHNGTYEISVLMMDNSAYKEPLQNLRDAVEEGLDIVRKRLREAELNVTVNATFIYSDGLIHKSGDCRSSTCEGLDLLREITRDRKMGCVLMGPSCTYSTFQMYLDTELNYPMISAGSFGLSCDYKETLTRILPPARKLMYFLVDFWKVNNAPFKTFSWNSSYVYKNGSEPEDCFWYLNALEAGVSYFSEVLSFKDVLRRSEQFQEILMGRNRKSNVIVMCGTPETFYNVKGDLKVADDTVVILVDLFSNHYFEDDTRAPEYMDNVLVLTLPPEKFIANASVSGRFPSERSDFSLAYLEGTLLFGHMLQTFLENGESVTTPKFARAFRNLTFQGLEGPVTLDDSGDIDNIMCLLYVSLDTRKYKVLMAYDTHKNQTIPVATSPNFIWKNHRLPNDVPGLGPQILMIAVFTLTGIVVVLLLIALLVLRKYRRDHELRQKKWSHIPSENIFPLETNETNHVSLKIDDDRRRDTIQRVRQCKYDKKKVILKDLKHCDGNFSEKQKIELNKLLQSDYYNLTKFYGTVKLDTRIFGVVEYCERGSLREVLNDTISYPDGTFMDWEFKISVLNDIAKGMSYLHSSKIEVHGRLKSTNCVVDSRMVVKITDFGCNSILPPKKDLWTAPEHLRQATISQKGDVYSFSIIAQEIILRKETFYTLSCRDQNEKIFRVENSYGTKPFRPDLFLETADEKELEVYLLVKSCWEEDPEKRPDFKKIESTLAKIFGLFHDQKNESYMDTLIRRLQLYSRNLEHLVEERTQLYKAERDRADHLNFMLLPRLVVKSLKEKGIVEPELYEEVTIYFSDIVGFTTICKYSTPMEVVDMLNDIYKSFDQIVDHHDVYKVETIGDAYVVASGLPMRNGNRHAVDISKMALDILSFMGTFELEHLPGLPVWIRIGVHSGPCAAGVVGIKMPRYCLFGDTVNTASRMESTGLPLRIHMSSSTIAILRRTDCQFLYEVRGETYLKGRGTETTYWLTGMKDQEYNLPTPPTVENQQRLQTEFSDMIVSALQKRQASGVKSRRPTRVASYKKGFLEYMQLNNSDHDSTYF


What was measured:
[1] = target: T3, GC-C receptors expressed on the surface of T84 cells (Homo sapiens, UniProt P25092); test: Binding of Cy3/Cy5.5 probes to T84 cells
T3 construct: endogenous in cells; host or cells: T84 cells, intact or as isolated cell membranes
T3 sequence (P25092 24-1073): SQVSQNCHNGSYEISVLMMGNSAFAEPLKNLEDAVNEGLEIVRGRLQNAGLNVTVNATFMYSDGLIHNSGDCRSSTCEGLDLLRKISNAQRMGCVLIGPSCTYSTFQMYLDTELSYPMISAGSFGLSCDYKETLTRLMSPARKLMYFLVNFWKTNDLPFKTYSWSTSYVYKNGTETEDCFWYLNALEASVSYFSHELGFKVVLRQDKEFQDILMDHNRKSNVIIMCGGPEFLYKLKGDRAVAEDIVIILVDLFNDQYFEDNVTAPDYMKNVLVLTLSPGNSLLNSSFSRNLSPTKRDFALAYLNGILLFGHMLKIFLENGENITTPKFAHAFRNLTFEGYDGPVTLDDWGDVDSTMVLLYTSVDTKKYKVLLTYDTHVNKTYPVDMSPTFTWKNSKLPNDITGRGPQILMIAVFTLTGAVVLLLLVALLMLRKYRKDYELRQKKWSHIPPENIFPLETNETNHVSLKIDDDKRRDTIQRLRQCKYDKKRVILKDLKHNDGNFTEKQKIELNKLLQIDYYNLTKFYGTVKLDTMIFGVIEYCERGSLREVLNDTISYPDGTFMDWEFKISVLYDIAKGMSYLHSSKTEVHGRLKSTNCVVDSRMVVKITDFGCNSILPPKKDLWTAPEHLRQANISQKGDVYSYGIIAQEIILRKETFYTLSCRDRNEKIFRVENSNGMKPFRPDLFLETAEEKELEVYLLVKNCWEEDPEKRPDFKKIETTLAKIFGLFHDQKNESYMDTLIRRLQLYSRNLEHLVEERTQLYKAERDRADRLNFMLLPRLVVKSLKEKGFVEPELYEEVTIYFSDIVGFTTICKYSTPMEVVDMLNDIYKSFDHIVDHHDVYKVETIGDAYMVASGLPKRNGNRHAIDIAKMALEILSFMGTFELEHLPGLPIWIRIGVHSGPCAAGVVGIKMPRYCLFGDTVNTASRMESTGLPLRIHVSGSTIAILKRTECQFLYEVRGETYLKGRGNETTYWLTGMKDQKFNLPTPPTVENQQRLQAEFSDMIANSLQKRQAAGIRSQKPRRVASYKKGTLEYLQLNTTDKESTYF
Description: (§1) SP-333 was labeled with an appropriate infrared (IR) fluorescence dye for in vivo imaging purposes. The peptide was to be labeled with an appropriate IR dye through the reaction of a N-hydroxysuccinamidyl (NHS) activated ester with the amine group of the peptide. Our initial test with the VivoTag680 NHS ester supplied by PerkinElmer, Inc was not successful. […] Labeling SP-333 with Cy3 and the subsequent HPLC purification was successful, with an overall labeling efficiency of 30% achieved. […] Both Cy3 and Cy5.5 belong to a family of cyanine fluorescence dyes used in bioimaging applications. […] We performed similar binding experiments with the cell membranes isolated from T84 cells and from rat intestinal tissues. […] Thus, SP-333-IR680 fluorescence was custom synthesized.

[2] = target: T1, cell membranes isolated from rat intestinal tissues; test: Binding of Cy3/Cy5.5 probes to cell membranes from rat intestinal tissues
Description: as §1

[3] = target: GC-C receptor (Homo sapiens, UniProt P25092); test: Binding of dye-conjugated SP-333 to GC-C receptors (method not specified)
Sequence of GC-C receptor (P25092 24-1073): as above
Description: as §1

[4] = tested on: rat intestinal fragments; test: Ex vivo binding of Cy3/Cy5.5 probes with rat intestinal fragments
Description: as §1

[5] = target: T4, cell membranes isolated from T84 cells (Homo sapiens, UniProt P25092); test: Binding of Cy3/Cy5.5 probes to cell membranes isolated from T84 cells
T4 construct: endogenous in cells; host or cells: T84 cells, intact or as isolated cell membranes
T4 sequence (P25092 24-1073): as above
Description: as §1

[6] = target: T5, Guanylate cyclase C (GC-C) receptor expressed on human T84 cells (human, UniProt P25092 24-1073); test: competition of unlabeled SP-333 against IR680-SP-333 probe binding on T84 cells
T5 construct: whole, on cells; also called GC-C receptors
T5 sequence (P25092 24-1073): as above

[7] = target: T2, GC-C receptor in rat intestinal tissues; test: binding to cell membranes from rat intestinal tissues; ex vivo binding with rat intestinal fragments

Molecule	specific binding to GC-C receptors on the surface of T84 cells [1]	specific binding to cell membranes isolated from rat intestinal tissues [2]	binding to GC-C receptors after conjugation of dye to the N-terminal of SP-333 [3]	specific binding in ex vivo binding with rat intestinal fragments [4]	specific binding to cell membranes isolated from T84 cells [5]	IC50 [6]	binding result [7]
Cy3-SP-333: SP-333 conjugated with cyanine fluorescence dye Cy3-NHS ester (Cy3-[dN]DECELCVNVACTGC[dL]; disulfide 4-12, 7-15)	failed to exhibit specific binding	did not show any specific binding	without appreciable loss	lack of specific binding	did not show any specific binding	–	–
Cy5.5-SP-333: SP-333 conjugated with cyanine fluorescence dye Cy5.5 NHS ester ({Cy5.5}-[dN]DECELCVNVACTGC[dL]; disulfide 4-12, 7-15)	failed to exhibit specific binding	did not show any specific binding	without appreciable loss	lack of specific binding	did not show any specific binding	–	–
[dN]DECELCVNVACTGC[dL] (disulfide 4-12, 7-15, Synthetic analog of uroguanylin; also called Api 1251) [SP-333 (dolcanatide), unlabeled]	–	–	–	–	–	~1.6 µM	–
{Cy5.5}-[dN]DECELCVNVACTGC[dL] (disulfide 4-12, 7-15) [Cy5.5-SP-333]	–	–	–	–	–	–	no binding
Cy3-[dN]DECELCVNVACTGC[dL] (disulfide 4-12, 7-15) [Cy3-SP-333]	–	–	–	–	–	–	no binding
